Here are results for 2 molecules from ChEMBL document CHEMBL2074526, “ATP-dependent transport of amphiphilic cations across the hepatocyte canalicular membrane mediated by mdr1 P-glycoprotein” (FEBS Lett, 1994).

Common to all, as to format: functional, cell membranes
Data set [1] addresses Multidrug resistance protein 1a (Rattus norvegicus) (UniProt Q6PSM0). In words: (§1) TP_TRANSPORTER: uptake in rat canalicular membrane vesicle.
Data set [2] relates to C=C[C@H]1CN2CC[C@H]1C[C@@H]2[C@@H](O)c1ccnc2ccc(OC)cc12. The description is as §1.
The test system of data set [3] is C=CC1C[N+]2(CCCCC)CCC1CC2C(O)c1ccnc2ccc(OC)cc12. As to the kind of experiment: TP_TRANSPORTER: uptake in rat canalicular plasma membrane vesicles. Conditions: Canalicular plasma membrane vesicle.

Consider `CCC1C[N+]2(CCCC3(C)N=N3)C3CC45c6ccccc6N(C)C4C2CC1C3C5O` (stereo not drawn), for which the Activity result in data set [1] was “substrate [+]”. Regarding “Multidrug resistance protein 1a (Rattus norvegicus), Q6PSM0”, the Michaelis-Menten constant (Km) in data set [2] worked out at 5 µM; in data set [3], 0.4 µM.

By Km is commonly meant the concentration of substrate that gives half-maximal velocity.
